This note sets out measurements from publication PMC5349899 (Oncotarget, 2016).

The target in the assay is T1, TGF-β2.
T1 sequence (P61812 303-414, species assumed, looked up): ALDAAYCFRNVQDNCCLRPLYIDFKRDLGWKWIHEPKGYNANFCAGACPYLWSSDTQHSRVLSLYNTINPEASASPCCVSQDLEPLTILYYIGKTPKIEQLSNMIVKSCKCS
The experiment in a line: cell-based or functional assay.

B1: trivalent TGF-β receptor trap RER (RII-BGE-RII) (other)
chain: NGAVKFPQLCKFCDVRFSTCDNQKSCMSNCSITSICEKPQEVCVAVWRKNDENITLETVCHDPKLPYHDFILEDAASPKCIMKEKKKPGETFFMCSCSSDECNDNIIFSEEYNTSNPDGPEPSTRCELSPINASHPVQALMESFTVLSGCASRGTTGLPREVHVLNLRSTDQGPGQRQREVTLHLNPIASVHTHHKPIVFLLNSPQPLVWHLKTERLAAGVPRLFLVSEGSVVQFPSGNFSLTAETEERNFPQENEHLLRWAQKEYGAVTSFTELKIARNIYIKVGEDQVFPPTCNIGKNFLSLNYLAEYLQPKAAEGCVLPSQPHEKEVHIIELITPSSNPYSAFQVDIIVDIRPAQEDPEVVKNLVLILKCKKSVNWVIKSFDVKGNLKVIAPNSIGFGKESERSMTMTKLVRDDIPSTQENLMKWALDNGYRPVTSYTMAPVANRFHLRLENNEEMRDEEVHTIPPELRILLDPDNGAVKFPQLCKFCDVRFSTCDNQKSCMSNCSITSICEKPQEVCVAVWRKNDENITLETVCHDPKLPYHDFILEDAASPKCIMKEKKKPGETFFMCSCSSDECNDNIIFSEEYNTSNPD
modifications: N-linked glycans (as isolated, glycosylated)
Regarding B1, the “IC50 of inhibition of PAI-1 luciferase reporter activity in Mv1Lu mink lung epithelial cells induced with 20 pM TGF-β2” value came out at 70 pM.

B2: bivalent TGF-β receptor trap ER (BGE-RII) (other)
chain: GPEPSTRCELSPINASHPVQALMESFTVLSGCASRGTTGLPREVHVLNLRSTDQGPGQRQREVTLHLNPIASVHTHHKPIVFLLNSPQPLVWHLKTERLAAGVPRLFLVSEGSVVQFPSGNFSLTAETEERNFPQENEHLLRWAQKEYGAVTSFTELKIARNIYIKVGEDQVFPPTCNIGKNFLSLNYLAEYLQPKAAEGCVLPSQPHEKEVHIIELITPSSNPYSAFQVDIIVDIRPAQEDPEVVKNLVLILKCKKSVNWVIKSFDVKGNLKVIAPNSIGFGKESERSMTMTKLVRDDIPSTQENLMKWALDNGYRPVTSYTMAPVANRFHLRLENNEEMRDEEVHTIPPELRILLDPDNGAVKFPQLCKFCDVRFSTCDNQKSCMSNCSITSICEKPQEVCVAVWRKNDENITLETVCHDPKLPYHDFILEDAASPKCIMKEKKKPGETFFMCSCSSDECNDNIIFSEEYNTSNPD
modifications: N-linked glycans (as isolated, glycosylated)
For B2, the “IC50 of inhibition of PAI-1 luciferase reporter activity in Mv1Lu mink lung epithelial cells induced with 20 pM TGF-β2” value was 1200 pM.
